Results taken from paper PMC2950913 (Nature structural & molecular biology, 2010).

Biological target: T1, RAD51 recombinase (human, UniProt Q06609 1-339)
T1 sequence: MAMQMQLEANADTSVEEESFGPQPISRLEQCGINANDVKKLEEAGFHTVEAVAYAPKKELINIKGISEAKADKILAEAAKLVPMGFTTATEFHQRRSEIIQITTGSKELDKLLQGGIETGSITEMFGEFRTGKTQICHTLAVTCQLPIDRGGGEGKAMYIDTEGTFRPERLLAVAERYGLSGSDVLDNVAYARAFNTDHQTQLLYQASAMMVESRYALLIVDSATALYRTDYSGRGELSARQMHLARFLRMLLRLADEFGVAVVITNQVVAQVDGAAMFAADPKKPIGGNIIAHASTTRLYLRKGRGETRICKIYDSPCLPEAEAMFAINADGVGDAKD
Assay: pull-down

binding result: binds
B1: GST-tagged PALB2 1-184 fragment (domain or fragment)
chain: MDEPPGKPLSCEEKEKLKEKLAFLKREYSKTLARLQRAQRAEKIKHSIKKTVEEQDCLSQQDLSPQLKHSEPKNKICVYDKLHIKTHLDEETGEKTSITLDVGPESFNPGDGPGGLPIQRTDDTQEHFPHRVSDPSGEQKQKLPSRRKKQQKRTFISQERDCVFGTDSLRLSGKRLKEQEEISS
